Test results as given in the supplement of paper PMC10567573.

B1: SMTNL2 (parent)
chain: ETAAGKGKGEARARLKRSQSFGVA

Variants of: B1
Assay: protein stability index of a GFP-peptide fusion (GPS, HEK-293T) (PSI 1-6); higher = more stable
Details: c terminus: a fixed tail appended
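Also: lentivirally expressed fusions sorted by FACS into six bins by GFP to DsRed ratio, PSI derived from sequencing read proportions per bin multiplied by bin number.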

Variant	protein stability index
ETAAGKEKGEARARLKRSQSFGVA [G7E]	4.71
ETAAGKWKGEARARLKRSQSFGVA [G7W]	3.03
ETAAGKQKGEARARLKRSQSFGVA [G7Q]	4.46
ETAAGKLKGEARARLKRSQSFGVA [G7L]	4.26
ETAAGKIKGEARARLKRSQSFGVA [G7I]	4.17
ETAAGKRKGEARARLKRSQSFGVA [G7R]	4.11
ETAAGKNKGEARARLKRSQSFGVA [G7N]	4.02
ETAAGKAKGEARARLKRSQSFGVA [G7A]	4.28
ETAAGKTKGEARARLKRSQSFGVA [G7T]	4.48
ETAAGKDKGEARARLKRSQSFGVA [G7D]	4.75
ETAAGKPKGEARARLKRSQSFGVA [G7P]	4.08
ETAAGKCKGEARARLKRSQSFGVA [G7C]	3.48
ETAAGKKKGEARARLKRSQSFGVA [G7K]	4.62
ETAAGKMKGEARARLKRSQSFGVA [G7M]	3.73
ETAAGKSKGEARARLKRSQSFGVA [G7S]	4.22
ETAAGKVKGEARARLKRSQSFGVA [G7V]	4.01
ETAAGKHKGEARARLKRSQSFGVA [G7H]	4.18
ETAAGKFKGEARARLKRSQSFGVA [G7F]	3.87
ETAAGKYKGEARARLKRSQSFGVA [G7Y]	4.2
EMAAGKGKGEARARLKRSQSFGVA [T2M]	4.65
EEAAGKGKGEARARLKRSQSFGVA [T2E]	4.83
ESAAGKGKGEARARLKRSQSFGVA [T2S]	4.66
ENAAGKGKGEARARLKRSQSFGVA [T2N]	4.86
EHAAGKGKGEARARLKRSQSFGVA [T2H]	4.46

Variant	protein stability index
EGAAGKGKGEARARLKRSQSFGVA [T2G]	4.71
EKAAGKGKGEARARLKRSQSFGVA [T2K]	4.58
EAAAGKGKGEARARLKRSQSFGVA [T2A]	4.74
ECAAGKGKGEARARLKRSQSFGVA [T2C]	4.53
EIAAGKGKGEARARLKRSQSFGVA [T2I]	4.11
EFAAGKGKGEARARLKRSQSFGVA [T2F]	4.46
EQAAGKGKGEARARLKRSQSFGVA [T2Q]	4.55
EVAAGKGKGEARARLKRSQSFGVA [T2V]	4.79
EPAAGKGKGEARARLKRSQSFGVA [T2P]	4.92
EWAAGKGKGEARARLKRSQSFGVA [T2W]	3.07
EDAAGKGKGEARARLKRSQSFGVA [T2D]	5.39
ELAAGKGKGEARARLKRSQSFGVA [T2L]	4.36
EYAAGKGKGEARARLKRSQSFGVA [T2Y]	3.83
ETAAMKGKGEARARLKRSQSFGVA [G5M]	3.93
ETAANKGKGEARARLKRSQSFGVA [G5N]	4.58
ETAAYKGKGEARARLKRSQSFGVA [G5Y]	4.07
ETAASKGKGEARARLKRSQSFGVA [G5S]	4.24
ETAALKGKGEARARLKRSQSFGVA [G5L]	4.56
ETAAIKGKGEARARLKRSQSFGVA [G5I]	3.91
ETAAFKGKGEARARLKRSQSFGVA [G5F]	4.04
ETAAKKGKGEARARLKRSQSFGVA [G5K]	4.8
ETAAEKGKGEARARLKRSQSFGVA [G5E]	4.79
ETAAQKGKGEARARLKRSQSFGVA [G5Q]	4.39
ETAAVKGKGEARARLKRSQSFGVA [G5V]	4.34

Variant	protein stability index
ETAAAKGKGEARARLKRSQSFGVA [G5A]	4.94
ETAADKGKGEARARLKRSQSFGVA [G5D]	3.84
ETAAHKGKGEARARLKRSQSFGVA [G5H]	4.77
ETAAPKGKGEARARLKRSQSFGVA [G5P]	4.52
ETAAWKGKGEARARLKRSQSFGVA [G5W]	4.06
ETAACKGKGEARARLKRSQSFGVA [G5C]	4.41
ETAARKGKGEARARLKRSQSFGVA [G5R]	4.42
ETAATKGKGEARARLKRSQSFGVA [G5T]	4.38
ETAAGKGDGEARARLKRSQSFGVA [K8D]	5.01
ETAAGKGTGEARARLKRSQSFGVA [K8T]	4.08
ETAAGKGAGEARARLKRSQSFGVA [K8A]	5.13
ETAAGKGFGEARARLKRSQSFGVA [K8F]	4.29
ETAAGKGYGEARARLKRSQSFGVA [K8Y]	4.2
ETAAGKGNGEARARLKRSQSFGVA [K8N]	4.8
ETAAGKGIGEARARLKRSQSFGVA [K8I]	4.12
ETAAGKGGGEARARLKRSQSFGVA [K8G]	3.96
ETAAGKGVGEARARLKRSQSFGVA [K8V]	4.62
ETAAGKGCGEARARLKRSQSFGVA [K8C]	4.17
ETAAGKGWGEARARLKRSQSFGVA [K8W]	3.87
ETAAGKGLGEARARLKRSQSFGVA [K8L]	4
ETAAGKGQGEARARLKRSQSFGVA [K8Q]	5.13
ETAAGKGMGEARARLKRSQSFGVA [K8M]	4.66
ETAAGKGRGEARARLKRSQSFGVA [K8R]	4.38
ETAAGKGHGEARARLKRSQSFGVA [K8H]	4.44

Variant	protein stability index
ETAAGKGSGEARARLKRSQSFGVA [K8S]	4.43
ETAAGKGEGEARARLKRSQSFGVA [K8E]	4.89
ETAAGKGPGEARARLKRSQSFGVA [K8P]	4.54
ETAAGSGKGEARARLKRSQSFGVA [K6S]	4.62
ETAAGEGKGEARARLKRSQSFGVA [K6E]	5.05
ETAAGNGKGEARARLKRSQSFGVA [K6N]	4.32
ETAAGPGKGEARARLKRSQSFGVA [K6P]	4.59
ETAAGWGKGEARARLKRSQSFGVA [K6W]	3.79
ETAAGFGKGEARARLKRSQSFGVA [K6F]	4.56
ETAAGTGKGEARARLKRSQSFGVA [K6T]	4.78
ETAAGGGKGEARARLKRSQSFGVA [K6G]	3.58
ETAAGYGKGEARARLKRSQSFGVA [K6Y]	3.9
ETAAGLGKGEARARLKRSQSFGVA [K6L]	4.04
ETAAGRGKGEARARLKRSQSFGVA [K6R]	4.39
ETAAGAGKGEARARLKRSQSFGVA [K6A]	4.62
ETAAGVGKGEARARLKRSQSFGVA [K6V]	4.23
ETAAGHGKGEARARLKRSQSFGVA [K6H]	4.53
ETAAGDGKGEARARLKRSQSFGVA [K6D]	4.85
ETAAGQGKGEARARLKRSQSFGVA [K6Q]	3.41
ETAAGIGKGEARARLKRSQSFGVA [K6I]	4.54
ETAAGMGKGEARARLKRSQSFGVA [K6M]	3.87
ETAAGCGKGEARARLKRSQSFGVA [K6C]	2.43
